Laboratory results reported in patent US20090117091A1 (BIOMARIN PHARMACEUTICAL, published 2009).

Molecular target: GILT-tagged GAA ZC-701 (human, UniProt P10253 70-952)
Assay: SPR (Biacore 3000); biotinylated CI-MPR Dom10-13 on SA chip, analyte in solution, steady-state affinity fit, I1572T mutant surface as reference
Experimental: Following docking of the SA sensor chip, the SA chip was washed two times with deionized water. The flow cells to be coupled were conditioned by injecting 60 ml of a buffer containing 50 mM NaOH/1 M NaCl at a flow rate of 20 ml/min. The chip was washed with H2O as described above. The chip was then washed with coupling buffer (10 mM HEPES pH 7.4/100 mM NaCl) as described above. […] Flow cells (FC) 1 & 2 were coupled at a higher density than FC 3 & 4. FC1 and FC3 were immobilized with the mutant Dom 10-13 construct and were used as the reference surface (i.e., the response obtained from FC1 was subtracted from FC2; the response obtained from FC3 was subtracted from FC4). FC2 and FC4 were immobilized with the wild-type Dom10-13 construct. […] Following the 50 ml injection of coupling buffer containing the Dom10-13 constructs, the chip was washed with coupling buffer alone (10 ml injection at a flow rate of 10 ml/min). Remaining unbound streptavidin binding sites were saturated with biotin by two sequential 10 ml injections of biotin (10 mM) at a flow rate of 10 μl/min.
After coupling, the flow cells were equilibrated in running buffer (10 mM HEPES pH 7.0, 150 mM NaCl, and 0.005% (v/v) surfactant P20).

Kd: 33 nM
B1: biotinylated, His-tagged recombinant wild-type CI-MPR domains 10-13 (1288FS) (receptor)
chain: AGAPTGHHHHHHAPGLNDIFEAQKIEWHEPFDLTECSFKDGAGNSFDLSSLSRYSDNWEAITGTGDPEHYLINVCKSLAPQAGTEPCPPEAAACLLGGSKPVNLGRVRDGPQWRDGIIVLKYVDGDLCPDGIRKKSTTIRFTCSESQVNSRPMFISAVEDCEYTFAWPTATACPMKSNEHDDCQVTNPSTGHLFDLSSLSGRAGFTAAYSEKGLVYMSICGENENCPPGVGACFGQTRISVGKANKRLRYVDQVLQLVYKDGSPCPSKSGLSYKSVISFVCRPEAGPTNRPMLISLDKQTCTLFFSWHTPLACEQATECSVRNGSSIVDLSPLIHRTGGYEAYDESEDDASDTNPDFYINICQPLNPMHGVPCPAGAAVCKVPIDGPPIDIGRVAGPPILNPIANEIYLNFESSTPCLADKHFNYTSLIAFHCKRGVSMGTPKLLRTSECDFVFEWETPVVCPDEVRMDGCTLTDEQLLYSFNLSSLSTSTFKVTRDSRTYSVGVCTFAVGPEQGGCKDGGVCLLSGTKGASFGRLQSMKLDYRHQDEAVVLSYVNGDRCPPETDDGVPCVFPFIFNGKSYEECIIESRAKLWCSTTADYDRDHEWGFCRHSNSYRTSSIIFKCDEDEDIGRPQVFSEVRGCDVTFEWKTKVVCP
modifications: biotinylated with BirA enzyme in the Biotin AS domain
notes: The protein was immobilised on a streptavidin chip; also called p1288; HIS-BIOTIN-CI-MPR DOMAINS 10-13
